Results: paper PMC7664366 (Redox Biology, 2020)

B1: NipR2 (nitration inhibitory peptide for the Rho GTPases 2) (peptide)
peptide: HRKKRRQRRRQFPGEYIPTVF
B2: NipR2F (phenylalanine-substituted control peptide) (peptide)
peptide: HRKKRRQRRRQFPGEFIPTVF

Biological target: His-tagged human Rac1 recombinant protein (human, UniProt P63000 1-192)
Experiment: MALDI MS, linear mode acquisition

Binder	binding result
B1	binds
B2	binds
